Experimental data taken from patent publication US20240374744.

Test system: huHF(+)-DOX (huHF(+) protein nanoparticle-doxorubicin conjugate)
Sequence (chain, as listed by the source): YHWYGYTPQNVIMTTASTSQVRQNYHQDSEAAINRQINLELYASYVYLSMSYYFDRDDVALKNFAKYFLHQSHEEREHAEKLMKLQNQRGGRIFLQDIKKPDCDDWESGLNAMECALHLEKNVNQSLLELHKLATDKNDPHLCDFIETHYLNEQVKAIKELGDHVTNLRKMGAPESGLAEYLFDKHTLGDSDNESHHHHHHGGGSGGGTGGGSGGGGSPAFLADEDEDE

| Substance | cleavage of the conjugate and release of doxorubicin (native-PAGE, UV absorbance), enzyme in LPM mixture | cleavage of the conjugate and release of doxorubicin (native-PAGE, Coomassie staining, UV absorbance of doxorubicin) |
| --- | --- | --- |
| cathepsin B | it was observed that the peptide was not specifically cleaved thereby the drug was not selectively released |  |
| cathepsin E |  | From 3 hours after staining, it was visually observed that the portion to which the anticancer drug was bound in the conjugate was effectively cleaved by cathepsin E |
| cathepsin L | it was observed that the peptide was not specifically cleaved thereby the drug was not selectively released |  |
| cathepsin D | it was observed that the peptide was not specifically cleaved thereby the drug was not selectively released |  |
